# B1: CREAP1: human CRE activating protein 1, 650 amino acids, SEQ ID NO 2; expressed from pCMVSPORT-CREAP1 (protein)
# chain: MATSNNPRKFSEKIALHNQKQAEETAAFEEVMKDLSLTRAARLQLQKSQYLQLGPSRGQYYGGSLPNVNQIGSGTMDLPFQPSGFLGEALAAAPVSLTPFQSSGLDTSRTTRHHGLVDRVYRERGRLGSPHRRPLSVDKHGRQADSCPYGTMYLSPPADTSWRRTNSDSALHQSTMTPTQPESFSSGSQDVHQKRVLLLTVPGMEETTSEADKNLSKQAWDTKKTGSRPKSCEVPGINIFPSADQENTTALIPATHNTGGSLPDLTNIHFPSPLPTPLDPEEPTFPALSSSSSTGNLAANLTHLGIGGAGQGMSTPGSSPQHRPAGVSPLSLSTEARRQQASPTLSPLSPITQAVAMDALSLEQQLPYAFFTQAGSQQPPPQPQPPPPPPPASQQPPPPPPPQAPVRLPPGGPLLPSASLTRGPQPPPLAVTVPSSLPQSPPENPGQPSMGIDIASAPALQQYRTSAGSPANQSPTSPVSNQGFSPGSSPQHTSTLGSVFGDAYYEQQMAARQANALSHQLEQFNMMENAISSSSLYSPGSTLNYSQAAMMGLTGSHGSLPDSQQLGYASHSGIPNIILTVTGESPPSLSKELTSSLAGVGDVSFDSDSQFPLDELKIDPLTLDGLHMLNDPDMVLADPATEDTFRMDRL
# modifications: human
# Columns and labels:
# [1] = test system: GAL4 DNA binding sites (UAS-Luc, pFR-Luc reporter); assay: GAL4 DNA binding domain fusion transactivation assay (pFR-Luc) in HEK 293 cells; type: cell-based; settings: normalized to pCMV-BD vector
# Source text: To determine if CREAP proteins can act as a transcription activators, various regions of all 3 CREAP homologs (amino acids 300-650 of CREAP1, amino acids 296-694 of CREAP2 and amino acids 335-635 of CREAP3) were expressed as fusion proteins with the DNA binding domain of GAL4 and tested for the ability to activate expression of a reporter gene linked to GAL4 protein binding sequences (UAS-Luc (pFR-Luc reporter). Briefly, the indicated regions of CREAP1, CREAP2 and CREAP3 were amplified by PCR and subcloned in frame into pCMV-BD vector (Stratagene) encoding GAL4 DNA binding domain. Selected plasmids and empty vector (pCMV-SPORT6) were transfected into HEK 293 cells at 75 ng/well using Fugene6 transfection reagent (Roche) as described above. pFR-Luc reporter (Stratagene) encoding firefly luciferase gene driven by minimal promoter linked to 5 concatamerized GAL4 binding sites (UAS) was co-transfected at 100 ng/well. As a positive control, the reporter was also co-transfected with a plasmid encoding GAL4-CREB fusion protein (Stratagene) alone or in the presence of pFC-PKA an expression construct encoding catalytic subunit of protein kinase A (Stratagene) to activate the CREB kinase inducible activation domain. Fold induction was compared to the reporter's activity measured in the cells transfected with pCMV-BD an expression vector carrying GAL4 DNA binding domain only.
# Expression constructs encoding full length CREAP1, CREAP2 and CREAP3 as well as a Gal4 DNA binding domain alone or fused with C-terminal portions of CREAP1, CREAP2 and CREAP3 were tested for the ability to induce expression of a luciferase gene controled by a minimal promoter linked to GAL4 DNA binding sites (pFRLuciferase). The data shown are normalized to the value seen with pCMV-BD vector co-transfected with pFR-Luc reporter.
# GAL4-CREB fusion protein = assay: GAL4-CREB activation assay in HLR cell line; type: cell-based; settings: HLR cell line with integrated pFR-Luc reporter, normalized to pCMV-BD vector
# Description: To determine if CREAP proteins can directly activate CREB1 protein, the expression constructs of CREAP1, CREAP2 and CREAP3 were transfected individually or with GAL4-CREB plasmid (Stratagene) into HLR cell line (Stratagene) carrying genomic DNA integrated copies of pFR-Luc reporter. Briefly, HLR cells were maintained per manufacturer's instructions. Selected plasmids and either empty vector (pCMV-BD) or GAL4-CREB plasmid were transfected at 75 ng/well using Fugene6 transfection reagent (Roche) as described above. As a positive control pFC-PKA an expression construct encoding catalytic subunit of protein kinase A (Stratagene) was also co-trasfected with GAL4-CREB. Fold of activation was compared to the reporter's activity measured in the cells transfected with empty vector.
# The ability of full length CREAP1, CREAP2 and CREAP3 to induce the activity of GAL4-CREB fusion protein (Stratagene) was tested. The data presented are normalized to the value seen with pCMV-BD vector. […] Note the fold induction obtained with positive control is lower when compared to the data from Table 6 when all the plasmids including the reporter were transiently transfected.
molecule,measurement,setting,value
B1,Fold Induction,[1],2.468
same,Fold Induction,GAL4-CREB fusion protein,6.122

# Reference: patent publication US20070036810A1, “Cyclic amp response element activator proteins and uses related thereto” (priority 2003, published 2007)
